In publication PMC11601812, “Structural proteomics defines a sequential priming mechanism for the progesterone receptor” (Research Square, 2024):

B1: progesterone receptor isoform B (PR-B), full-length, Strep II tagged (receptor, human, UniProt P06401 1-933, looked up)
chain: MTELKAKGPRAPHVAGGPPSPEVGSPLLCRPAAGPFPGSQTSDTLPEVSAIPISLDGLLFPRPCQGQDPSDEKTQDQQSLSDVEGAYSRAEATRGAGGSSSSPPEKDSGLLDSVLDTLLAPSGPGQSQPSPPACEVTSSWCLFGPELPEDPPAAPATQRVLSPLMSRSGCKVGDSSGTAAAHKVLPRGLSPARQLLLPASESPHWSGAPVKPSPQAAAVEVEEEDGSESEESAGPLLKGKPRALGGAAAGGGAAAVPPGAAAGGVALVPKEDSRFSAPRVALVEQDAPMAPGRSPLATTVMDFIHVPILPLNHALLAARTRQLLEDESYDGGAGAASAFAPPRSSPCASSTPVAVGDFPDCAYPPDAEPKDDAYPLYSDFQPPALKIKEEEEGAEASARSPRSYLVAGANPAAFPDFPLGPPPPLPPRATPSRPGEAAVTAAPASASVSSASSSGSTLECILYKAEGAPPQQGPFAPPPCKAPGASGCLLPRDGLPSTSASAAAAGAAPALYPALGLNGLPQLGYQAAVLKEGLPQVYPPYLNYLRPDSEASQSPQYSFESLPQKICLICGDEASGCHYGVLTCGSCKVFFKRAMEGQHNYLCAGRNDCIVDKIRRKNCPACRLRKCCQAGMVLGGRKFKKFNKVRVVRALDAVALPQPVGVPNESQALSQRFTFSPGQDIQLIPPLINLLMSIEPDVIYAGHDNTKPDTSSSLLTSLNQLGERQLLSVVKWSKSLPGFRNLHIDDQITLIQYSWMSLMVFGLGWRSYKHVSGQMLYFAPDLILNEQRMKESSFYSLCLTMWQIPQEFVKLQVSQEEFLCMKVLLLLNTIPLEGLRSQTQFEEMRSSYIRELIKAIGLRQKGVVSSSQRFYQLTKLLDNLHDLVKQLHLYCLNTFIQSRALSVEFPEMMSEVIAAQLPKILAGMVKPLLFHKK
notes: Progesterone receptor isoform PR-B, human; full-length open reading frame (residues up to 933 are named), codon-optimised for insect cells; no cleavage step is described and the DSF methods call the purified proteins SII-tagged; Carries R5020 or RU486 according to the assay; In the functional row PR-B was expressed from a VectorBuilder plasmid in 293T cells (hRluc:P2A:hPGR), not this Sf9 protein; …
B2: progesterone receptor isoform A (PR-A), full-length, Strep II tagged (receptor, human, UniProt P06401-2 1-769, looked up)
chain: MSRSGCKVGDSSGTAAAHKVLPRGLSPARQLLLPASESPHWSGAPVKPSPQAAAVEVEEEDGSESEESAGPLLKGKPRALGGAAAGGGAAAVPPGAAAGGVALVPKEDSRFSAPRVALVEQDAPMAPGRSPLATTVMDFIHVPILPLNHALLAARTRQLLEDESYDGGAGAASAFAPPRSSPCASSTPVAVGDFPDCAYPPDAEPKDDAYPLYSDFQPPALKIKEEEEGAEASARSPRSYLVAGANPAAFPDFPLGPPPPLPPRATPSRPGEAAVTAAPASASVSSASSSGSTLECILYKAEGAPPQQGPFAPPPCKAPGASGCLLPRDGLPSTSASAAAAGAAPALYPALGLNGLPQLGYQAAVLKEGLPQVYPPYLNYLRPDSEASQSPQYSFESLPQKICLICGDEASGCHYGVLTCGSCKVFFKRAMEGQHNYLCAGRNDCIVDKIRRKNCPACRLRKCCQAGMVLGGRKFKKFNKVRVVRALDAVALPQPVGVPNESQALSQRFTFSPGQDIQLIPPLINLLMSIEPDVIYAGHDNTKPDTSSSLLTSLNQLGERQLLSVVKWSKSLPGFRNLHIDDQITLIQYSWMSLMVFGLGWRSYKHVSGQMLYFAPDLILNEQRMKESSFYSLCLTMWQIPQEFVKLQVSQEEFLCMKVLLLLNTIPLEGLRSQTQFEEMRSSYIRELIKAIGLRQKGVVSSSQRFYQLTKLLDNLHDLVKQLHLYCLNTFIQSRALSVEFPEMMSEVIAAQLPKILAGMVKPLLFHKK
notes: Progesterone receptor isoform PR-A, human; N-terminal truncation (missing aa 1-164) of full-length PR-B; no cleavage step is described and the DSF methods call the purified proteins SII-tagged; Carries the steroid R5020 (agonist) or RU486 (antagonist) according to the assay; Monomer without DNA, dimer on PRE DNA by SEC-MALS; The reporter-assay plasmids carry hPGR NM_000926.4 and NM_001202474.3; …
B3: steroid receptor coactivator 3 (SRC3), full-length, Strep II tagged (natural protein)
chain: not shown
notes: full-length open reading frame, codon-optimised for insect cells; NR-boxes at 685-689, 738-742 and 1057-1061; no cleavage step is described; source: Sf9 insect cells (baculovirus), purified (StrepTrap XT, SEC); not shown: Strep II, N-terminal, kept

Tests used:
[1] = target: the molecule itself; assay: SEC-MALS; each protein alone, PR bound to agonist R5020, no DNA; Superose 6 Increase; 20 mM Hepes, 50 mM NaCl, 5% glycerol, 1 mM TCEP, with or without 1 M urea, pH 7.5; about 20-100 ug injected
[2] = target: B3; assay: HDX-MS; differential, R5020-bound PR vs PR:SRC3 and SRC3 vs PR:SRC3, with and without PRE DNA (2:1:1 PR:SRC3:PRE), sequential addition; 4 C, 20 mM Hepes, 200 mM NaCl, 1 M urea, 1 mM TCEP, 5% glycerol, pD 7.9; details: both partners purified
[3] = target: T1, histone acetyltransferase p300, full-length, Strep II tagged (human, UniProt Q09472 1-2414); assay: cross-linking; DSSO XL-MS of two proteins (R5020-bound PR with SRC3, or PR-B with p300 without SRC3), with and without PRE DNA; PR 5 uM, 3 mM DSSO, 25 C 45 min; 20 mM Hepes pH 7.5, 200 mM NaCl, 1 M urea, 1 mM TCEP, 5% glycerol; details: both partners purified
T1 construct: Histone acetyltransferase p300, human; full-length open reading frame, codon-optimised for insect cells; no cleavage step is described; source: Sf9 insect cells (baculovirus), purified (StrepTrap XT, SEC); not shown: Strep II, N-terminal, kept

[4] = target: the molecule itself; assay: SEC-MALS; R5020-bound PR mixed with 32-mer PRE DNA; Superose 6 Increase; 20 mM Hepes, 50 mM NaCl, 5% glycerol, 1 mM TCEP, with or without 1 M urea, pH 7.5
[5] = target: T1, histone acetyltransferase p300, …; assay: cross-linking; DSSO XL-MS of R5020-bound PR:SRC3:p300, with and without PRE DNA (PR:SRC3:p300:DNA 2:1:1:1.5); PR 5 uM, 3 mM DSSO, 25 C 45 min; 20 mM Hepes pH 7.5, 200 mM NaCl, 1 M urea, 1 mM TCEP, 5% glycerol; details: both partners purified
[6] = target: B2; assay: SEC-MALS; R5020-bound PR-A, SRC3 and p300 mixed with PRE DNA; Superose 6 Increase; 20 mM Hepes, 50 mM NaCl, 5% glycerol, 1 mM TCEP, with or without 1 M urea, pH 7.5; details: both partners purified
[7] = target: T1, histone acetyltransferase p300, …; assay: HDX-MS; differential, R5020-bound PR:SRC3 vs PR:SRC3:p300, with and without PRE DNA, sequential addition (DNA, PR, SRC3, p300); 4 C, 20 mM Hepes, 200 mM NaCl, 1 M urea, 1 mM TCEP, 5% glycerol, pD 7.9; details: both partners purified

T1 sequence (Q09472 whole entry): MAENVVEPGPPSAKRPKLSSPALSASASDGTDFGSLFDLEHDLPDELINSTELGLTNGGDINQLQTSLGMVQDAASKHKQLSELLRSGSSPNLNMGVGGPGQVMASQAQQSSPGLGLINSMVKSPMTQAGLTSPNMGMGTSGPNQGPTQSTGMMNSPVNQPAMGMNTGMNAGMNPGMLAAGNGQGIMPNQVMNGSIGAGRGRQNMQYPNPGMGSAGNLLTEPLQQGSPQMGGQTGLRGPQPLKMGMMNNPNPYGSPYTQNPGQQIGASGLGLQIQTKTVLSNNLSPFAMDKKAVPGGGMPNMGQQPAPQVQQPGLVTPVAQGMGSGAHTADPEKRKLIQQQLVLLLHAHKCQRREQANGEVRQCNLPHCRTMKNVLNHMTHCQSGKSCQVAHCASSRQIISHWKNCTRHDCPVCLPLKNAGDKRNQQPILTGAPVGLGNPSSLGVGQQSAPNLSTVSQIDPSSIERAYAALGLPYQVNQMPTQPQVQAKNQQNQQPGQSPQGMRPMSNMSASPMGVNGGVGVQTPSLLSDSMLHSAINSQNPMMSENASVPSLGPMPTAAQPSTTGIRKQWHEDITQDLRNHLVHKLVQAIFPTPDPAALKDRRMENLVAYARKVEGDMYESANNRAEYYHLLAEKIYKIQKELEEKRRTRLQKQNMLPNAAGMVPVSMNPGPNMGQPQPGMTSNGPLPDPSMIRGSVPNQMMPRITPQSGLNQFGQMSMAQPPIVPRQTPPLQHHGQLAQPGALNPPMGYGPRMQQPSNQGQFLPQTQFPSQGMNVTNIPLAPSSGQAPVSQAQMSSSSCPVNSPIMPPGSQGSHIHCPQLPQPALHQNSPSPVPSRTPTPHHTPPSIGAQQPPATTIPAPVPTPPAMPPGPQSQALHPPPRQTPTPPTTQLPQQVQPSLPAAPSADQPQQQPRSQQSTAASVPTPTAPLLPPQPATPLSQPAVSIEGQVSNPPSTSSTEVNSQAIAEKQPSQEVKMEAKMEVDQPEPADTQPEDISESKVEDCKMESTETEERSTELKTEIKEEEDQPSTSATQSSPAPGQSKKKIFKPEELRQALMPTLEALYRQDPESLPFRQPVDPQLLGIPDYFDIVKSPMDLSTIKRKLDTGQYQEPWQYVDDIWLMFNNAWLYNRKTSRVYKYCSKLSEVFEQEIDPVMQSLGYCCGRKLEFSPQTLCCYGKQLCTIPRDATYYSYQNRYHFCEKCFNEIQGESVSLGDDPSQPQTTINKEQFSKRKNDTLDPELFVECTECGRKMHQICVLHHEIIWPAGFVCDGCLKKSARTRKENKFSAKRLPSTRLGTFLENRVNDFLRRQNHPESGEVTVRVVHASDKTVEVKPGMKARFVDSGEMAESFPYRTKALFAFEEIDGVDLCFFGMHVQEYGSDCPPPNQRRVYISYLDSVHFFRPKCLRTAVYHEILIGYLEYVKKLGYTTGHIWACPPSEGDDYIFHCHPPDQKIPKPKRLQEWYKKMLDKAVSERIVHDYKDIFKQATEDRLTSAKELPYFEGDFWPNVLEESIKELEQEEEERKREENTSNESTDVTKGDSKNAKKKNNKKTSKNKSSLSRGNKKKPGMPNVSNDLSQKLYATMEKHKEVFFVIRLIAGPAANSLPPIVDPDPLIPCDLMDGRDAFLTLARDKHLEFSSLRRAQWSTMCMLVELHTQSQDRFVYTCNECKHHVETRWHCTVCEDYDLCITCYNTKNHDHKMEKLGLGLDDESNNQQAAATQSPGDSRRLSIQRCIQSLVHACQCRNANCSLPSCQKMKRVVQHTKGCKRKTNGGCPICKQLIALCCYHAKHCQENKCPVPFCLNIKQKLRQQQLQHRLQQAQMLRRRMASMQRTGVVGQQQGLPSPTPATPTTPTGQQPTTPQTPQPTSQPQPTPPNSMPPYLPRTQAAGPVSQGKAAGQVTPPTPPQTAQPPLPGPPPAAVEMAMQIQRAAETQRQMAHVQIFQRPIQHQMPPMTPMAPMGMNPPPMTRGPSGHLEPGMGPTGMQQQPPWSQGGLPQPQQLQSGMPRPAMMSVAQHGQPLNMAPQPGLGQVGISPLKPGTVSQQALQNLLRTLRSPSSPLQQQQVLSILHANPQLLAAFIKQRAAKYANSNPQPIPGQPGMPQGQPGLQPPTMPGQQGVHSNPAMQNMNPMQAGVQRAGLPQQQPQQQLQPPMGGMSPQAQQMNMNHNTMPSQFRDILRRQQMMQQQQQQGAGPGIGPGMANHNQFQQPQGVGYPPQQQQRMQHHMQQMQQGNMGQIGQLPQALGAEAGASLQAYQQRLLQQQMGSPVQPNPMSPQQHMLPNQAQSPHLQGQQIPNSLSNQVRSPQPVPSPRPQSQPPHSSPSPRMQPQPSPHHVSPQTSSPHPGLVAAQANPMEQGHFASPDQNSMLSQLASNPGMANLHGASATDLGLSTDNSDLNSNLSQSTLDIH

Binder	stoichiometry N [1]	binding result [2]	binding result [3]	stoichiometry N [4]	binding result [5]	stoichiometry N [6]	binding result [7]
B1	2	binds	binds				
B2		binds		2	binds		
B3						0.5	binds
